The values below come from publication PMC12307654, “Time-dependent catalytic activity in aging condensates” (Nature Communications, 2025).

Substrate in the data set: C=C(O[C@H]1C=C[C@H](C(=O)CCC(=O)O)[C@@H](C(=O)O)[C@@H]1O)C(=O)O
Put plainly: purified protein. The note with it: free enzyme without scaffold, 20 mM Tris, 150 mM NaCl, 0.5 mM AEBSF, 0.1 mM DTT, 0.1% Triton X-100, 10% glycerol, pH 7.4, room temperature. The class given is biochemical, Escherichia coli.

B1: MenH-RIDD (Escherichia coli K-12) (protein)
chain: MILHAQAKHGKPGLPWLVFLHGFSGDCHEWQEVGEAFADYSRLYVDLPGHGGSAAISVDGFDDVTDLLRKTLVSYNILDFWLVGYSLGGRVAMMAACQGLAGLCGVIVEGGHPGLQNAEQRAERQRSDRQWVQRFLTEPLTAVFADWYQQPVFASLNDDQRRELVALRSNNNGATLAAMLEATSLAVQPDLRANLSARTFAFYYLCGERDSKFRALAAELAADCHVIPRAGHNAHRENPAGVIASLAQILRF
notes: full-length MenH fused to the RIDD docking peptide tag; gene from laboratory stock; free enzyme without FIB1-GFP-RIAD scaffold
In the case of B1, the Km is 12.75 ± 1.68 µM and the kcat is 92.15 ± 5.83 min⁻¹.

Broadly, the Km is the substrate concentration at which the rate is half of its maximum. By kcat is commonly meant the number of substrate molecules converted per active site and unit of time at saturation.
